According to article PMC6539110, “A Novel G-Quadruplex Binding Protein in Yeast—Slx9”:
Positions count from the first letter of the chain named.

Experiments:
Slx9 (6xHis-Slx9) [1] = target: T1, Slx9 (6xHis-Slx9) (Saccharomyces cerevisiae, UniProt P53251 1-210); experiment: filter binding; Filter binding: 50 mM Tris/HCl pH 8.0, 125 mM KCl, 5 mM DTT, 10% glycerol, 10 nM DNA, 0-65 uM Slx9, on ice 30 min; MST: 25 nM Cy5-DNA, NaCl (buffer partly given), 0.5% BSA, 0.05% Tween-20, 24 C; settings: protein: recombinant, tags: 6xHis (pET28a EcoRI/NotI; about 30 kDa)
T1 sequence: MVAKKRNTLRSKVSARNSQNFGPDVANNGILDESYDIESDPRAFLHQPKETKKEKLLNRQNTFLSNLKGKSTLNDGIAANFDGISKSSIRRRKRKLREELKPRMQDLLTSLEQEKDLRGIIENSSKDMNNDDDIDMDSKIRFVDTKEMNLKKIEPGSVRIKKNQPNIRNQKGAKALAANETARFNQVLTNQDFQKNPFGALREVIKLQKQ

Slx9 (6xHis-Slx9) [2] = target: T1, Slx9 (6xHis-Slx9); experiment: filter binding; listed as G4TP2; Filter binding: 50 mM Tris/HCl pH 8.0, 125 mM KCl, 5 mM DTT, 10% glycerol, 10 nM DNA, 0-65 uM Slx9, on ice 30 min; MST: 25 nM Cy5-DNA, NaCl (buffer partly given), 0.5% BSA, 0.05% Tween-20, 24 C; settings: protein: recombinant; tags: 6xHis (pET28a EcoRI/NotI; about 30 kDa); label: 5' 32P; folded G4

B1: dsDNA (dsDNA)
DNA 1: GACGCTGCCGAATTCTGGCTTGCTAGGACATCTTTGCCCACGTTGACCCG
DNA 2: CGGGTCAACGTGGGCAAAGATGTCCTAGCAAGCCAGAATTCGGCAGCGTC
In the case of B1, the Kd (Slx9 (6xHis-Slx9) [1]; label: 5' 32P, blunt) is reported as 5.27 ± 1.18 µM.

B2: fork (dsDNA)
DNA 1: B1 DNA 1
DNA 2: CGGGTCAACGTGGGCAAAGATGTCCTAGCAATGTAATCGTCTATGACGTC
Binder B2 has a Kd (Slx9 (6xHis-Slx9) [1]; label: 5' 32P, fork 1:2, 5' arm of strand 1 and 3' arm of strand 2 unpaired (about 19 nt)) of 4.21 ± 0.64 µM.

B3: 4-fork (4-way junction) (dsDNA)
DNA 1: B1 DNA 1
DNA 2: B2 DNA 2
DNA 3: GACGTCATAGACGATTACATTGCTAGGACATGCTGTCTAGAGACTATCGC
DNA 4: GCGATAGTCTCTAGACAGCATGTCCTAGCAAGCCAGAATTCGGCAGCGTC
Work on B3 yielded a Kd (Slx9 (6xHis-Slx9) [1]; label: 5' 32P, four-way junction 1:2 2:3 3:4 4:1) of 3.72 ± 0.62 µM.

B4: bubble (dsDNA)
DNA 1: CGGGTCAACGTGGGCAAAGCCAATGCGATCGGCCAGAATTCGGCAGCGTC
DNA 2: B1 DNA 1 with A25C
With B4 the Kd (Slx9 (6xHis-Slx9) [1]; label: 5' 32P, blunt, central mismatched bubble) was 1.73 ± 0.42 µM.

For AAAAAAAAAAGGGGGAGCTGGGGTAGATGGGAATGTGAGGG (structured_DNA) [G4TP (G4TP1/G4TP2 in Fig. 1C)], the Kd (Slx9 (6xHis-Slx9) [2]) was 0.53 ± 0.1 µM.

AAAAAAAAAAGGGTACGGTGGGTAATAAGGGAAGGTATCGGG (structured_DNA) [G4IX] gave a Kd (Slx9 (6xHis-Slx9) [1]; 5' Cy5 (MST), folded G4) of 0.55 ± 0.08 µM.

Binder AAAAAAAAAAGCGTACGGTGCGTAATAACGCAAGCTATCGCG (ssDNA) [G4mut (mut-G4IX)] has a Kd (Slx9 (6xHis-Slx9) [1]; 5' Cy5 (MST), cannot fold G4) of 15.7 ± 3.57 µM.
